From paper PMC7545097, “Mapping the native interaction surfaces of PREP1 with PBX1 by cross-linking mass-spectrometry and mutagenesis” (Scientific Reports, 2020) come the findings set out here.

Experiment in all cases: time-resolved fluorescence immunoassay (TR-FIA); plate coated with monoclonal anti-PBX1; PBX1 pre-incubated with PREP1 or MEIS1 for 1 h on ice, 10 µg/mL in 1% BSA PBS, 1 h at room temperature on the plate; detected with anti-PREP1 or biotinylated anti-MEIS1/2 and Eu^3+ conjugates; normalised to the wild-type protein taken as 1
The target of test [1] is T1, PBX1_(1-430), wild-type recombinant (human, UniProt P40424 1-430).
T1 construct: also called wild-type PBX1; purified recombinant human PBX1; source: E. coli, purified
T1 sequence (looked up): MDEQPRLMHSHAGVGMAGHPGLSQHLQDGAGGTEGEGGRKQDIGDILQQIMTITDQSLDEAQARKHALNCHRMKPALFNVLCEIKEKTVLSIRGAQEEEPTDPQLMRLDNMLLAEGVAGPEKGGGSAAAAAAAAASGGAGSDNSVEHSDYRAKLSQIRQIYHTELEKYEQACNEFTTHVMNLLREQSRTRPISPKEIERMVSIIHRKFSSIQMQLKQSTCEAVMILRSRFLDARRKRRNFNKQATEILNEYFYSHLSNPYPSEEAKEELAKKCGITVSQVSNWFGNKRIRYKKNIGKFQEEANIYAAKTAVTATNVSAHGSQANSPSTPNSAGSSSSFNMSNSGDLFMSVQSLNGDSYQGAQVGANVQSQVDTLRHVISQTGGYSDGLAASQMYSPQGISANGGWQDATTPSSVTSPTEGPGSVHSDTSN

Test [2] addresses PBX1Δ197-204 (human) (UniProt P40424).
Test [3] addresses T2, PBX1Δ43-55 (human, UniProt P40424 1-430, Δ43-55).
T2 construct: PBX1, residues 1-430, with an internal deletion; source: E. coli, purified
T2 sequence (looked up): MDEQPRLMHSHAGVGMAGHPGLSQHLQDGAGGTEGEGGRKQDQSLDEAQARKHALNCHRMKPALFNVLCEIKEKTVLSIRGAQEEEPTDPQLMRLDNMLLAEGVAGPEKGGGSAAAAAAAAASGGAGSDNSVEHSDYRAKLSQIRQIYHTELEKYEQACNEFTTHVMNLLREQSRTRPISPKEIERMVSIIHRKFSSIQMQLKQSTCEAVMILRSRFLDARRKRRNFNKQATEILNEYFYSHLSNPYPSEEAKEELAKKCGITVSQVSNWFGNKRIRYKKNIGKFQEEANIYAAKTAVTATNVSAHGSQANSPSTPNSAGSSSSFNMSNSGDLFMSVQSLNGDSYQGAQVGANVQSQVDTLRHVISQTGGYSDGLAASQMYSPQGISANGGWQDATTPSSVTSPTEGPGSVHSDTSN
Conditions: both partners purified.

In test [4] the target is T3, PBX1 Δ105-113 (human, UniProt P40424 1-430, Δ105-113).
T3 construct: PBX1, residues 1-430, with an internal deletion; source: E. coli, purified
T3 sequence (looked up): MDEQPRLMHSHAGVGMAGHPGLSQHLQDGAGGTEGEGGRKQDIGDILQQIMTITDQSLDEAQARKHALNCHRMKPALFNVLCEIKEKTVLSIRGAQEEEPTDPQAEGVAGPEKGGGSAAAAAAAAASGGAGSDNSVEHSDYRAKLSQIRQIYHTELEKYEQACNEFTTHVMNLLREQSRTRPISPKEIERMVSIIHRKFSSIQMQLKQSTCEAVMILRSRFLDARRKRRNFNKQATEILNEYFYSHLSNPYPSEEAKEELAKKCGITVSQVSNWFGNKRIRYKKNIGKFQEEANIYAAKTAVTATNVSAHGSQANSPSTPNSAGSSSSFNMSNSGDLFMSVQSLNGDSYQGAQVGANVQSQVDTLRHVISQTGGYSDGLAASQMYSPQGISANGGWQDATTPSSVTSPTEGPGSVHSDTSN
Conditions: both partners purified.

In test [5] the target is T4, PBX1 Δ77-84 (human, UniProt P40424 1-430, Δ77−84).
T4 construct: PBX1, residues 1-430, with an internal deletion; source: E. coli, purified
T4 sequence (looked up): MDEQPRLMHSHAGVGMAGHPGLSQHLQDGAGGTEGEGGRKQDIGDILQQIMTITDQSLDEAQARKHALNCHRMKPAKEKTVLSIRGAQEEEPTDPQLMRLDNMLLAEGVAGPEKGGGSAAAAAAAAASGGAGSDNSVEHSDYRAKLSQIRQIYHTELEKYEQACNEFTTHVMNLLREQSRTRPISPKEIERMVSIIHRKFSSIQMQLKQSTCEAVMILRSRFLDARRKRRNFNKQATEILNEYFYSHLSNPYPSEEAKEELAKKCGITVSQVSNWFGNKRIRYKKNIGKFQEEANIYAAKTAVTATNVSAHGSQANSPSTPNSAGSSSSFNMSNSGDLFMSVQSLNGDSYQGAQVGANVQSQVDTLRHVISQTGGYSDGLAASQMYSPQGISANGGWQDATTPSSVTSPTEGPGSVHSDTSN
Conditions: both partners purified.

The target of test [6] is T5, PREP1_(1-436), wild-type recombinant (TR-FIA) (UniProt P55347 1-436).
T5 construct: also called wild-type PREP1; PKNOX1; source: E. coli, purified
T5 sequence (looked up): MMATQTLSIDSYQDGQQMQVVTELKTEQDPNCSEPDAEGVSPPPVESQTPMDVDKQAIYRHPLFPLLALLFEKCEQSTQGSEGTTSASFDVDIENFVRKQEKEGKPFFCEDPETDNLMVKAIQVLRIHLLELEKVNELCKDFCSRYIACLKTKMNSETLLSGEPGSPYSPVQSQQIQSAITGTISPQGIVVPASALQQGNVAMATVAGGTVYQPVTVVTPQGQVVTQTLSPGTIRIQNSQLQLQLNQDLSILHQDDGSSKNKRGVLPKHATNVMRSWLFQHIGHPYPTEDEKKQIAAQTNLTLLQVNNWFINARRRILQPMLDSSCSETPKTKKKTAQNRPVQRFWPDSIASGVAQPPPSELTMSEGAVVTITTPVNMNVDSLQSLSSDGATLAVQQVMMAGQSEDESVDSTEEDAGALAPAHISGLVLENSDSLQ
Conditions: both partners purified.

Where two headings read alike, the source gives them in different places.

For the molecule “PREP1 HR2m (I122A/L125A/L129A/L132A), TR-FIA (from UniProt P55347 1-436) (natural protein)”, the binding relative to wild type in test [1] came out at 30%.

B1: MEIS1_(1-390), wild-type recombinant (TR-FIA) (natural protein, UniProt O00470 1-390, looked up)
chain: MAQRYDDLPHYGGMDGVGIPSTMYGDPHAARSMQPVHHLNHGPPLHSHQYPHTAHTNAMAPSMGSSVNDALKRDKDAIYGHPLFPLLALIFEKCELATCTPREPGVAGGDVCSSESFNEDIAVFAKQIRAEKPLFSSNPELDNLMIQAIQVLRFHLLELEKVHELCDNFCHRYISCLKGKMPIDLVIDDREGGSKSDSEDITRSANLTDQPSWNRDHDDTASTRSGGTPGPSSGGHTSHSGDNSSEQGDGLDNSVASPSTGDDDDPDKDKKRHKKRGIFPKVATNIMRAWLFQHLTHPYPSEEQKKQLAQDTGLTILQVNNWFINARRRIVQPMIDQSNRAVSQGTPYNPDGQPMGGFVMDGQQHMGIRAPGPMSGMGMNMGMEGQWHYM
notes: MEIS1, full length, residues 1-390; also called wild-type MEIS1; source: E. coli, purified
For B1, the binding relative to wild type in test [2] is 45%; in test [3], 60%; in test [5], 35%. Further, the binding result in test [4] is on record as “binds”.

B2: PBX1 L112A (natural protein, human, UniProt P40424 1-430, looked up)
chain: MDEQPRLMHSHAGVGMAGHPGLSQHLQDGAGGTEGEGGRKQDIGDILQQIMTITDQSLDEAQARKHALNCHRMKPALFNVLCEIKEKTVLSIRGAQEEEPTDPQLMRLDNMALAEGVAGPEKGGGSAAAAAAAAASGGAGSDNSVEHSDYRAKLSQIRQIYHTELEKYEQACNEFTTHVMNLLREQSRTRPISPKEIERMVSIIHRKFSSIQMQLKQSTCEAVMILRSRFLDARRKRRNFNKQATEILNEYFYSHLSNPYPSEEAKEELAKKCGITVSQVSNWFGNKRIRYKKNIGKFQEEANIYAAKTAVTATNVSAHGSQANSPSTPNSAGSSSSFNMSNSGDLFMSVQSLNGDSYQGAQVGANVQSQVDTLRHVISQTGGYSDGLAASQMYSPQGISANGGWQDATTPSSVTSPTEGPGSVHSDTSN
notes: PBX1, residues 1-430; single alanine substitution; source: E. coli, purified
Take B2: in test [6], the binding result was “binds”.

B3: PBX1 V80A (natural protein, human, UniProt P40424 1-430, looked up)
chain: MDEQPRLMHSHAGVGMAGHPGLSQHLQDGAGGTEGEGGRKQDIGDILQQIMTITDQSLDEAQARKHALNCHRMKPALFNALCEIKEKTVLSIRGAQEEEPTDPQLMRLDNMLLAEGVAGPEKGGGSAAAAAAAAASGGAGSDNSVEHSDYRAKLSQIRQIYHTELEKYEQACNEFTTHVMNLLREQSRTRPISPKEIERMVSIIHRKFSSIQMQLKQSTCEAVMILRSRFLDARRKRRNFNKQATEILNEYFYSHLSNPYPSEEAKEELAKKCGITVSQVSNWFGNKRIRYKKNIGKFQEEANIYAAKTAVTATNVSAHGSQANSPSTPNSAGSSSSFNMSNSGDLFMSVQSLNGDSYQGAQVGANVQSQVDTLRHVISQTGGYSDGLAASQMYSPQGISANGGWQDATTPSSVTSPTEGPGSVHSDTSN
notes: PBX1, residues 1-430; source: E. coli, purified
On to B3, for which the binding result in test [6] is on record as “binds”.

B4: PBX1 V80A/L81A (natural protein, human, UniProt P40424 1-430, looked up)
chain: MDEQPRLMHSHAGVGMAGHPGLSQHLQDGAGGTEGEGGRKQDIGDILQQIMTITDQSLDEAQARKHALNCHRMKPALFNAACEIKEKTVLSIRGAQEEEPTDPQLMRLDNMLLAEGVAGPEKGGGSAAAAAAAAASGGAGSDNSVEHSDYRAKLSQIRQIYHTELEKYEQACNEFTTHVMNLLREQSRTRPISPKEIERMVSIIHRKFSSIQMQLKQSTCEAVMILRSRFLDARRKRRNFNKQATEILNEYFYSHLSNPYPSEEAKEELAKKCGITVSQVSNWFGNKRIRYKKNIGKFQEEANIYAAKTAVTATNVSAHGSQANSPSTPNSAGSSSSFNMSNSGDLFMSVQSLNGDSYQGAQVGANVQSQVDTLRHVISQTGGYSDGLAASQMYSPQGISANGGWQDATTPSSVTSPTEGPGSVHSDTSN
notes: as for B3
On to B4, for which the binding result in test [6] is listed as “binds”.

B5: PREP1 L132A (natural protein, UniProt P55347 1-436, looked up)
chain: MMATQTLSIDSYQDGQQMQVVTELKTEQDPNCSEPDAEGVSPPPVESQTPMDVDKQAIYRHPLFPLLALLFEKCEQSTQGSEGTTSASFDVDIENFVRKQEKEGKPFFCEDPETDNLMVKAIQVLRIHLLEAEKVNELCKDFCSRYIACLKTKMNSETLLSGEPGSPYSPVQSQQIQSAITGTISPQGIVVPASALQQGNVAMATVAGGTVYQPVTVVTPQGQVVTQTLSPGTIRIQNSQLQLQLNQDLSILHQDDGSSKNKRGVLPKHATNVMRSWLFQHIGHPYPTEDEKKQIAAQTNLTLLQVNNWFINARRRILQPMLDSSCSETPKTKKKTAQNRPVQRFWPDSIASGVAQPPPSELTMSEGAVVTITTPVNMNVDSLQSLSSDGATLAVQQVMMAGQSEDESVDSTEEDAGALAPAHISGLVLENSDSLQ
notes: PREP1 (PKNOX1), residues 1-436
As to B5, the “binding relative to wild type” value in test [1] (both partners purified) is 40%.
